Assay results: FireProtDB (doi:10.1021/bi00010a017)

Settings: Saccharomyces cerevisiae (strain ATCC 204508 / S288c), pH 4.6, Thermal, CD, Unknown, reversible: yes

Chain of Cytochrome c isoform 1 Y103A, P00044 (P00044 whole entry Y103A, canonical isoform): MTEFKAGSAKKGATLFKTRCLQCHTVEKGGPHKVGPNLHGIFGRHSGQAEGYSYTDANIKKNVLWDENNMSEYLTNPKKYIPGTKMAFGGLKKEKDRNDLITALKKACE
Chain of Cytochrome c isoform 1 L100I, P00044 (P00044 whole entry L100I, canonical isoform): as the sequence (P00044 whole entry Y103A, canonical isoform) above, with L100I, A103Y counted along it
Chain of Cytochrome c isoform 1 wild type, P00044 (P00044 whole entry, canonical isoform): as the sequence (P00044 whole entry Y103A, canonical isoform) above, with A103Y counted along it
Chain of Cytochrome c isoform 1 L100T, P00044 (P00044 whole entry L100T, canonical isoform): as the sequence (P00044 whole entry Y103A, canonical isoform) above, with L100T, A103Y counted along it
Chain of Cytochrome c isoform 1 L100I|Y103F, P00044 L100I Y103F (P00044 whole entry L100I/Y103F, canonical isoform): as the sequence (P00044 whole entry Y103A, canonical isoform) above, with L100I, A103F counted along it
Chain of Cytochrome c isoform 1 F16W, P00044 (P00044 whole entry F16W, canonical isoform): as the sequence (P00044 whole entry Y103A, canonical isoform) above, with F16W, A103Y counted along it
Chain of Cytochrome c isoform 1 L100A|Y103F, P00044 L100A Y103F (P00044 whole entry L100A/Y103F, canonical isoform): as the sequence (P00044 whole entry Y103A, canonical isoform) above, with L100A, A103F counted along it
Chain of Cytochrome c isoform 1 F16I, P00044 (P00044 whole entry F16I, canonical isoform): as the sequence (P00044 whole entry Y103A, canonical isoform) above, with F16I, A103Y counted along it
Chain of Cytochrome c isoform 1 L100V, P00044 (P00044 whole entry L100V, canonical isoform): as the sequence (P00044 whole entry Y103A, canonical isoform) above, with L100V, A103Y counted along it
Chain of Cytochrome c isoform 1 F16Y, P00044 (P00044 whole entry F16Y, canonical isoform): as the sequence (P00044 whole entry Y103A, canonical isoform) above, with F16Y, A103Y counted along it
Chain of Cytochrome c isoform 1 Y103F, P00044 (P00044 whole entry Y103F, canonical isoform): as the sequence (P00044 whole entry Y103A, canonical isoform) above, with A103F counted along it
Chain of Cytochrome c isoform 1 L100A, P00044 (P00044 whole entry L100A, canonical isoform): as the sequence (P00044 whole entry Y103A, canonical isoform) above, with L100A, A103Y counted along it

Substance	Tm (structure 1YCC)	change of melting temperature, mutant - wild type (higher = more stable) (structure 1YCC)	heat capacity change of unfolding (structure 1YCC)	unfolding enthalpy (van 't Hoff) (structure 1YCC)	heat capacity change of unfolding (52.8 °C, structure 1YCC)	unfolding free energy (52.8 °C, structure 1YCC)	heat capacity change of unfolding (52.8 °C)	unfolding free energy (52.8 °C)	Tm	heat capacity change of unfolding	unfolding enthalpy (van 't Hoff)
Cytochrome c isoform 1 F16I, P00044	48.5 °C	-4.3 °C	1.57 kcal/mol/K	79.9 kcal/mol							
Cytochrome c isoform 1 F16W, P00044	47.6 °C	-5.2 °C	1.6 kcal/mol/K	75.6 kcal/mol							
Cytochrome c isoform 1 F16Y, P00044	50.9 °C	-1.9 °C	1.26 kcal/mol/K	75.5 kcal/mol							
Cytochrome c isoform 1 L100A, P00044	36.6 °C	-16.2 °C	1.94 kcal/mol/K	52.6 kcal/mol							
Cytochrome c isoform 1 L100A|Y103F, P00044 L100A Y103F	33.4 °C	-19.4 °C	1.78 kcal/mol/K	53.7 kcal/mol							
Cytochrome c isoform 1 L100I, P00044	54.1 °C	1.3 °C	1.81 kcal/mol/K	87.2 kcal/mol	1.81 kcal/mol/K	0.33 kcal/mol					
Cytochrome c isoform 1 L100I|Y103F, P00044 L100I Y103F	49.9 °C	-2.9 °C	1.76 kcal/mol/K	79.9 kcal/mol							
Cytochrome c isoform 1 L100T, P00044	38.9 °C	-13.9 °C	1.49 kcal/mol/K	57.8 kcal/mol							
Cytochrome c isoform 1 L100V, P00044	48.8 °C	-4 °C	1.54 kcal/mol/K	81.6 kcal/mol							
Cytochrome c isoform 1 Y103A, P00044	31.1 °C	-21.7 °C	1.77 kcal/mol/K	49.2 kcal/mol							
Cytochrome c isoform 1 Y103F, P00044	53.8 °C	1 °C	1.53 kcal/mol/K	84.5 kcal/mol	1.53 kcal/mol/K	0.24 kcal/mol					
Cytochrome c isoform 1 wild type, P00044							1.37 kcal/mol/K	0 kcal/mol	52.8 °C	1.37 kcal/mol/K	82.5 kcal/mol
